We go through 4 molecules from patent US6774220B1, “Compounds having lectinic properties and their biological applications” (Association pour le Développement de la Biothérapie …, priority 1995, dated 2004).

Read-outs that look alike come from different tables or passages of the source. Marks after values point to notes of the source that are not given here.

For one experiment, the system named is murine sarcolectin. Description: Action of simple sugars on the agglutination of cells by sarcolectin. The experiment is classed as cell-based, Swiss mice. The note with it: in the presence of 2 agglutinating units of murine sarcolectin; H9 cells. As for the experimental part: A wide variety of cells originating either from rodents or from primates was tested. Agglutination is obtained by suspending the cells in an MEM medium in the absence of serum. The test may be carried out in two ways, either in the presence of a sarcolectin dilution range in a base 2 geometric progression, by identifying the concentration at which 50% of the cells are agglutinated, or by identifying the affinity of the various sugars for the cell receptors.
In the example shown, murine sarcolectin originating from the ascitic fluid of Swiss mice grafted with Crocker TG180 sarcoma contains 32 units agglutinating the H9 cells which originate from a T lymphoma, fixed by 10% formaldehyde.
The table below illustrates the affinity of the receptors for the various sugars in the presence of 2 agglutinating units.

For experiment [1], the system named is action of interferon (antiviral state against vesicular stomatitis virus) in mouse L cells. The experiment is classed as cell-based.

With `OC[C@H]1OC(O)[C@H](O)[C@@H](O)[C@H]1O` (some centres unmarked) [D galactose], the affinity in the experiment with murine sarcolectin was determined as 0.28 mM.
Consider `OC[C@H]1O[C@@H](O[C@H]2[C@H](O)[C@@H](O)[C@@H](O)O[C@@H]2CO)[C@H](O)[C@@H](O)[C@H]1O` [α lactose], for which the affinity with murine sarcolectin is listed as 0.125 mM.
`OC[C@H]1O[C@@H](O[C@H]2[C@H](O)[C@@H](O)[C@H](O)O[C@@H]2CO)[C@H](O)[C@@H](O)[C@H]1O` [β lactose]: the affinity in the experiment on murine sarcolectin amounted to 0.25 mM.

B1: recombinant SCL: SCL expressed in mouse L cells transfected with plasmid containing the cloned gene, hexamethasone-inducible promoter (protein)
chain: SIHFSSPVFTSRSAAFSGRGAQVRLSSARPGGLGSSSLYGLGASRPRVAVRSAYGGPVGAGIREVTINQSLLAPLRLGADPFSQRVRQEESEQIKTLNNKFASFIDKVRFLEQQNKLLETKWTLLQEQKSAKSSRLPDIFEAQIAGLRGQLEAMQVDGGRLEQGLRTMQDVVEDFKNKYEDEINRRTAAENEFVVLKKDVDAAYMSKVELEAKVDALNDEINFLRTLNETELTELQSQISDTSVVLSMDNSRSLDLDGIIAEVKAQYEEMAKCSRAEAEAWYQTKFETLQAQAGKHGDDLRNTRNEISEMNRAIQRLQAEIDNIKNQRAKLEAAIAEAEERGELALKDARAKQEELEAALQRAKQDMARQLREYQELMSVKLALDIEIATYRKLLEGEESRLAGDGVGAANISVMNSTGGSSSGGGIGLTLGGTMGSNALSFSSSAGPGLLKAYSIRTASASRRSTRD
On to B1, for which, in experiment [1] (200 IU of interferon for 5 hours, then SCL in base 2 dilutions), the “limit dilution of SCL at which the action of the interferon was completely blocked” value is given as 1/32. The IFN titer is on record as less than 2 U in experiment [1] (A: IFN + SCL induced by hexamethasone) and more than 5120 U in experiment [1] (A: IFN + SCL non-induced). Besides, the “SCL titer (concentration of SCL which inhibits by 100% the antiviral state)” value in experiment [1] (B: IFN 200 U + SCL) was 32 U. 50%*. Also, the “effect on antiviral state (in words)” value in experiment [1] (interferon 5 hours, then SCL 18 hours) is “blocks the state of the antiviral effect”.
